Biological target: purified recombinant human insulin receptor (either with or without exon 11) (human) (UniProt P06213)
Experiment: SPA competition with A14Tyr[125I]-human insulin on purified recombinant human insulin receptor

Relative insulin receptor binding affinity (%) (% of the affinity of human insulin) | Substance
67.1 | A8H, A14E, A22K, B25H, B29R, desB30 human insulin (from UniProt P01308 90-110; P01308 25-53) (ligand)
136 | A8H, A14E, B10E, B25H, B26G, B27G,B28G, desB30 human insulin (from UniProt P01308 90-110; P01308 25-53) (ligand)
24 | A8H, A14E, B16H, B25H, desB30 human insulin (from UniProt P01308 90-110; P01308 25-53) (ligand)
81.1 | A8H, A14E, B22K, B25H, B29R, desB30 human insulin (from UniProt P01308 90-110; P01308 25-53) (ligand)
27 | A8H, A14H, B16H, B25H, desB30 human insulin (from UniProt P01308 90-110; P01308 25-53) (ligand)
23 | A14E, A15E, B25H, desB30 human insulin (from UniProt P01308 90-110; P01308 25-53) (ligand)
13.1 | A14E, A21G, B25H, desB30 human insulin (from UniProt P01308 90-110; P01308 25-53) (ligand)
0.9 | A14E, A22K, B16E, B25H, B29R, desB30 human insulin (from UniProt P01308 90-110; P01308 25-53) (ligand)
7.61 | A14E, A22K, B16H, B25H, B29R, desB30 human insulin (from UniProt P01308 90-110; P01308 25-53) (ligand)
59.2 | A14E, A22K, B25H, B26G, B27G, B28G, B29R, desB30 human insulin (from UniProt P01308 90-110; P01308 25-53) (ligand)
24.6 | A14E, A22K, B25H, B27E, B29R, desB30 human insulin (from UniProt P01308 90-110; P01308 25-53) (ligand)
144 | A14E, B10E, B25H, B26G, B27G, B28G, desB30 human insulin (from UniProt P01308 90-110; P01308 25-53) (ligand)
0.59 | A14E, B16E, B22K, B25H, B29R, desB30 human insulin (from UniProt P01308 90-110; P01308 25-53) (ligand)
4.61 | A14E, B16H, B22K, B25H, B29R, desB30 human insulin (from UniProt P01308 90-110; P01308 25-53) (ligand)
1.9 | A14E, B16H, B25H, desB27, desB28, desB29, desB30 human insulin (from UniProt P01308 90-110; P01308 25-50) (ligand)
60.7 | A14E, B22K, B25H, B26G, B27G, B28G, B29R, desB30 human insulin (from UniProt P01308 90-110; P01308 25-53) (ligand)
16.5 | A14E, B25H, B26E, B27E, desB30 human insulin (from UniProt P01308 90-110; P01308 25-53) (ligand)
22.7 | A14E, B25H, B26G, B27E, B28G, desB30 human insulin (from UniProt P01308 90-110; P01308 25-53) (ligand)
69.5 | A14E, B25H, B26G, B27G, B28K, desB30 human insulin (from UniProt P01308 90-110; P01308 25-53) (ligand)
16.5 | A14E, B25H, B27G, B28G, desB30 human insulin (from UniProt P01308 90-110; P01308 25-53) (ligand)
18.4 | A14E, B25H, B28G, desB30 human insulin (from UniProt P01308 90-110; P01308 25-53) (ligand)
26.1 | A14E, B25H, B29R, desB30 human insulin (from UniProt P01308 90-110; P01308 25-53) (ligand)
79 | A14E, B27K, desB28, desB29, desB30 human insulin (from UniProt P01308 90-110; P01308 25-51) (ligand)
2 | A14H, B16H, B25H, desB27, desB28, desB29, desB30 Human insulin (from UniProt P01308 90-110; P01308 25-50) (ligand)
11 | A14K, B25H, B29R human insulin (from UniProt P01308 90-110; P01308 25-54) (ligand)
14 | A14P, B25H, desB30 human insulin (from UniProt P01308 90-110; P01308 25-53) (ligand)

From patent US20110092419A1
